Key:
Human CCR7 [1] = target: T1, Human CCR7 (human, UniProt P32248 25-378); test: FACS binding assay
T1 construct: also called hCCR7; NIH3T3.hCCR7
T1 sequence: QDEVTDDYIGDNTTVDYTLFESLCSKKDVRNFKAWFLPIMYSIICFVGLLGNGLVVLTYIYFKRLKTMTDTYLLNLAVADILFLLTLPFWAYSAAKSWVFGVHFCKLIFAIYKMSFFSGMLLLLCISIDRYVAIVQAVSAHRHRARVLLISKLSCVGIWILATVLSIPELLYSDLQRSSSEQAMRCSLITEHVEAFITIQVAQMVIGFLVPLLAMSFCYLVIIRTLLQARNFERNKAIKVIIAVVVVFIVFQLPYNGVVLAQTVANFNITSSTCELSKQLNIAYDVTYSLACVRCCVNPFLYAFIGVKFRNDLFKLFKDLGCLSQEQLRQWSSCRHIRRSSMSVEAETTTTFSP

Human CCR7 [2] = target: T1, Human CCR7; test: cell-based or functional assay
Human CCR7 [3] = target: T1, Human CCR7; test: cell-based or functional assay; remark: listed apart in the source
Human CCR7 [4] = target: T1, Human CCR7; test: cell-based or functional assay; remark: listed apart in the source

B1: 121G12.CysMab.DAPA.MPET.DM4 (antibody, human IgG1, kappa)
heavy: EVQLVESGGGLVKPGGSLRLSCAASGFTFSTYAMSWVRQAPGKGLEWVATISDAGSYSYYPDNVKGRFTISRDNAKNSLYLQMNSLRAEDTAVYYCARRGSRYEEYYVMDYWGQGTTVTVSSASTKGPSVFPLAPSSKSTSGGTAALGCLVKDYFPCPVTVSWNSGALTSGVHTFPAVLQSSGLYSLSSVVTVPSSSLGTQTYICNVNHKPSNTKVDKRVEPKSCDKTHTCPPCPAPELLGGPSVFLFPPKPKDTLMISRTPEVTCVVVAVSHEDPEVKFNWYVDGVEVHNAKTKPREEQYNSTYRVVSVLTVLHQDWLNGKEYKCKVSNKALAAPIEKTISKAKGQPREPQVYTLPPSREEMTKNQVSLTCLVKGFYPCDIAVEWESNGQPENNYKTTPPVLDSDGSFFLYSKLTVDKSRWQQGNVFSCSVMHEALHNHYTQKSLSLSPGK
light: EIVLTQSPATLSVSPGERVTLSCRASQSISNNLHWYQQKPGQAPRLLIKYASQSISGIPARFSGSGSGTDFTLTISSVEPEDFGVYFCQQSSSWLTFGQGTKLEIKRTVAAPSVFIFPPSDEQLKSGTASVVCLLNNFYPREAKVQWKVDNALQSGNSQESVTEQDSKDSTYSLSSTLTLSKADYEKHKVYACEVTHQGLSSPVTKSFNRGEC
modifications: MPET.DM4 linker-drug on the engineered cysteines (E152C, S375C, EU numbering); DAR 3.79
notes: also called 121G12.CysMab.DAPA.MPET.DM4 (DAR 3.8); MPET.DM4 ADC
- geometric mean fluorescence intensity, difference from the unconjugated antibody (Human CCR7 [1]): ≤ 20%
- In vitro cytotoxic activity, IC50 (nM); DEL cells (relative receptor density 67%) (Human CCR7 [2]): 2.28 nM
- In vitro cytotoxic activity, IC50 (nM); JVM2 cells (relative receptor density 79%) (Human CCR7 [2]): 4.62 nM
- In vitro cytotoxic activity, IC50 (nM); KE97 cells (relative receptor density 100%) (Human CCR7 [2]): 2.24 nM
- In vitro cytotoxic activity, IC50 (nM); L540 cells (relative receptor density 175%) (Human CCR7 [2]): 4.9 nM
- In vitro cytotoxic activity, IC50 (nM); MOTN1 cells (relative receptor density 67%) (Human CCR7 [2]): 4.24 nM
- In vitro cytotoxic activity, IC50 (nM); Mec-2 cells (relative receptor density 15%) (Human CCR7 [2]): > 20 nM
- In vitro cytotoxic activity, IC50 (nM); OCI-Ly3 cells (relative receptor density 43%) (Human CCR7 [2]): 6.42 nM
- In vitro cytotoxic activity, IC50 (nM); PEER cells (relative receptor density 2%) (Human CCR7 [2]): > 20 nM
- In vitro cytotoxic activity, IC50 (nM); SUPHD1 cells (relative receptor density 310%) (Human CCR7 [2]): 1.69 nM

B2: 121G12.DAPA.sSPDB.DM4 (antibody, human IgG1, kappa)
heavy: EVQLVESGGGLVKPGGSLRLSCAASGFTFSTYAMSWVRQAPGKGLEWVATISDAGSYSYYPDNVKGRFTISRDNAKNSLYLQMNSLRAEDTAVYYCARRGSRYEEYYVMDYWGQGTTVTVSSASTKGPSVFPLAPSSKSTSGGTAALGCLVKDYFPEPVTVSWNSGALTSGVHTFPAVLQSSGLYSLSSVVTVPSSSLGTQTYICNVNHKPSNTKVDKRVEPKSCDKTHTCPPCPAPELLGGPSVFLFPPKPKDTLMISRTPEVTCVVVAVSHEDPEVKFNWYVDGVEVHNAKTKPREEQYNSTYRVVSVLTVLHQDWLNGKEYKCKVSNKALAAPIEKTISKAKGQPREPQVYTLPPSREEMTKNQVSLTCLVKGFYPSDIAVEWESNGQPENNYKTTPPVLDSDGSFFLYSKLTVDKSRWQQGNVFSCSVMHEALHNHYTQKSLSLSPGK
light: EIVLTQSPATLSVSPGERVTLSCRASQSISNNLHWYQQKPGQAPRLLIKYASQSISGIPARFSGSGSGTDFTLTISSVEPEDFGVYFCQQSSSWLTFGQGTKLEIKRTVAAPSVFIFPPSDEQLKSGTASVVCLLNNFYPREAKVQWKVDNALQSGNSQESVTEQDSKDSTYSLSSTLTLSKADYEKHKVYACEVTHQGLSSPVTKSFNRGEC
modifications: sulfo-SPDB-DM4 on endogenous lysines, sites not defined; sulfo-SPDB-DM4 on endogenous lysines, sites not defined (DAR 3.6 as prepared; labelled DAR3.9 in the assays)
notes: also called 121G12.DAPA.sSPDB.DM4 (DAR3.9); sSPDB.DM4 ADC
- geometric mean fluorescence intensity, difference from the unconjugated antibody (Human CCR7 [1]): ≤ 20%

B3: 121G12 non-humanized CysMab (antibody, human IgG1, kappa, V domains shown)
VH: EVQLVESGGGLVKPGGSLKLSCAASGFTFSTYAMSWVRQTPEKRLEWVATISDGGSYSYYPDNVKGRFTISRDNAKNNLYLQMSHLKSEDTAMYYCARRGSRYEEYYVMDYWGQGTSVTVSS
VL: DIVLTQSPATLSVTPGDSVSLSCRASQSISNNLHWYQQKSHESPKLLIKYASQSISGIPSRFSGSGSGTDFTLSINSVETEDFGMYFCQQSNSWLTFGAGTKLGLKR
- ADCC activity; IC50 (nM); surrogate ADCC reporter assay, JVM2 target cells and Jurkat-V158 effector cells (Human CCR7 [3]): 0.077 nM

B4: 121G12.CysMab.AURIX1 (antibody, human IgG1, kappa, V domains shown)
VH: EVQLVESGGGLVKPGGSLKLSCAASGFTFSTYAMSWVRQTPEKRLEWVATISDGGSYSYYPDNVKGRFTISRDNAKNNLYLQMSHLKSEDTAMYYCARRGSRYEEYYVMDYWGQGTSVTVSS
VL: DIVLTQSPATLSVTPGDSVSLSCRASQSISNNLHWYQQKSHESPKLLIKYASQSISGIPSRFSGSGSGTDFTLSINSVETEDFGMYFCQQSNSWLTFGAGTKLGLKR
modifications: AURIX1 on the engineered cysteines; DAR 3.80
notes: also called 121G12.AURIX1; 121G12 parental.Cys-Mab.wild type Fc.hIgG1.AURIX1
- geometric mean fluorescence intensity, difference from the unconjugated antibody (Human CCR7 [1]): ≤ 20%

B5: 506E15 (Humanized CysMab DAPA) (antibody, human IgG1, kappa, V domains shown)
VH: EVQLVESGGGLVKPGGSLRLSCAASGFTFSSYAMSWIRQAPGKGLEWVATISSGGSFTYYPDSVKGRFTISRDNAKNSLYLQMNSLRAEDTAVYYCARRASTVVGTDFDVWGQGTTVTVSS
VL: DIQMTQSPSSLSASVGDRVTLTCRASQDIGSSLNWLQQKPGKAIKRLIYATSSLDSGVPSRFSGSRSGTDYTLTISSLQPEDFVVYYCLQYASSPPTFGGGTKLEIKR
- pHrodo (6 h MFI), uptake of pHrodo-labelled antibody at 5 ug/ml, CD4+ T cells (2000 receptors) (Human CCR7 [4]): 429 MFI
- pHrodo (6 h MFI), uptake of pHrodo-labelled antibody at 5 ug/ml, CMLT1 cells (19583 receptors) (Human CCR7 [4]): 465 MFI
- pHrodo (6 h MFI), uptake of pHrodo-labelled antibody at 5 ug/ml, DEL cells (110685 receptors) (Human CCR7 [4]): 3060 MFI
- pHrodo (6 h MFI), uptake of pHrodo-labelled antibody at 5 ug/ml, JVM3 cells (8717 receptors) (Human CCR7 [4]): 238 MFI
- pHrodo (6 h MFI), uptake of pHrodo-labelled antibody at 5 ug/ml, Jeko-1 cells (28852 receptors) (Human CCR7 [4]): 908 MFI
- pHrodo (6 h MFI), uptake of pHrodo-labelled antibody at 5 ug/ml, KE97 cells (152093 receptors) (Human CCR7 [4]): 2720 MFI
- pHrodo (6 h MFI), uptake of pHrodo-labelled antibody at 5 ug/ml, L540 cells (167549 receptors) (Human CCR7 [4]): 16100 MFI
- pHrodo (6 h MFI), uptake of pHrodo-labelled antibody at 5 ug/ml, L1236 cells (61602 receptors) (Human CCR7 [4]): 3130 MFI
- pHrodo (6 h MFI), uptake of pHrodo-labelled antibody at 5 ug/ml, MJ cells (111121 receptors) (Human CCR7 [4]): 3870 MFI
- pHrodo (6 h MFI), uptake of pHrodo-labelled antibody at 5 ug/ml, MOTN1 cells (84200 receptors) (Human CCR7 [4]): 2900 MFI
- pHrodo (6 h MFI), uptake of pHrodo-labelled antibody at 5 ug/ml, Mec2 cells (50840 receptors) (Human CCR7 [4]): 3090 MFI

B6: 506E15.CysMab.DAPA.AURIX2 (antibody, human IgG1, kappa, V domains shown)
VH: EVQLVESGGGLVKPGGSLRLSCAASGFTFSSYAMSWIRQAPGKGLEWVATISSGGSFTYYPDSVKGRFTISRDNAKNSLYLQMNSLRAEDTAVYYCARRASTVVGTDFDVWGQGTTVTVSS
VL: DIQMTQSPSSLSASVGDRVTLTCRASQDIGSSLNWLQQKPGKAIKRLIYATSSLDSGVPSRFSGSRSGTDYTLTISSLQPEDFVVYYCLQYASSPPTFGGGTKLEIKR
modifications: AURIX2 on the engineered cysteines; DAR 3.80
notes: also called 506E15.DAPA.AURIX2
- geometric mean fluorescence intensity, difference from the unconjugated antibody (Human CCR7 [1]): ≤ 20%

From patent publication US20240092918A1 (Novartis, published 2024)
